Assay results taken from US20070020327A1.
Like-named read-outs stand apart in the source and are kept apart here.

What was measured:
HLA-A*0201 (human) [1] = experiment: competition with 125I-labelled standard peptide 941.01 ([..]) for purified HLA-A*0201, gel filtration
HLA-A*0201 (human) [2] = experiment: competition for purified HLA with 125I-labelled standard peptide 941.01 [..] as competitor, gel filtration; conditions: scale: ratio
HLA-A*0201 (human) [3] = experiment: competition with 125I-labelled standard peptide (941.01 [..]) for purified HLA, gel filtration
HLA-B*0702 (human) = experiment: competition with 125I-labelled standard peptide 1075.23 for purified HLA-B*0702, gel filtration
HLA-A*0201 (human) [4] = experiment: competition with 125I-labelled standard peptide on purified HLA, gel filtration
HLA-A*0301 (human) = experiment: competition with 125I-labelled standard peptide for purified HLA, gel filtration; conditions: scale: ratio
HLA-A*1101 (human) = experiment: as above; conditions: scale: ratio
HLA-A*0202 (human) = experiment: competition with 125I-labelled standard peptide on purified HLA, gel filtration
HLA-A*0206 (human) = experiment: as above; conditions: remark: other sources report otherwise
[5] = remark: other sources report otherwise

B1: PAP peptide … (position 145, 10 amino acids) (peptide)
peptide: TVPLSEDQLL
modifications: not checked
HLA-A*0201 (human) [1]
  binding affinity ratio (IC50 of standard peptide / IC50 of test peptide): 0.0001

B2: … (PSM position 130, 9-mer) (peptide)
peptide: IINEDGNEI
modifications: not checked
HLA-A*0201 (human) [2]
  binding affinity ratio: 0.0002

B3: PAP peptide … (position 237, 10 amino acids) (peptide)
peptide: ELSELSLLSL
modifications: not checked
HLA-A*0201 (human) [3]
  binding affinity ratio (IC50 of standard peptide / IC50 of test peptide): 0.0008

B4: … (PSM, position 693) (peptide)
peptide: APSSHNKYA
modifications: not checked
HLA-B*0702 (human)
  binding affinity ratio (IC50 of the standard peptide / IC50 of the test peptide) (ratio to standard peptide): 0.0003

B5: … (PSM position 283, 10-mer) (peptide)
peptide: IAEAVGLPSI
modifications: not checked
HLA-A*0201 (human) [2]
  binding affinity ratio: 0.0001

B6: peptide 20.0044 … (PAP.6) (peptide)
peptide: LLLARAASL
modifications: not checked
HLA-A*0201 (human) [4]; [5]
  IC50: 208 nM

B7: PSM peptide … (position 461, 10 amino acids) (peptide)
peptide: TLRVDCTPLM
modifications: not checked
HLA-A*0201 (human) [1]
  binding affinity ratio (IC50 of standard peptide / IC50 of test peptide): 0.0008

B8: … (PAP, position 39) (peptide)
peptide: TLVFRHGDR
modifications: not checked
HLA-A*0301 (human)
  binding affinity ratio: 0.0006
HLA-A*1101 (human)
  binding affinity ratio: 0.0002

B9: … (PSM, position 230) (peptide)
peptide: DPADYFAPGV
modifications: not checked
HLA-B*0702 (human)
  binding affinity ratio (IC50 of the standard peptide / IC50 of the test peptide) (ratio to standard peptide): 0.0002

B10: … (PSM, position 720) (peptide)
peptide: DPSKAWGEV
modifications: not checked
HLA-B*0702 (human)
  binding affinity ratio (IC50 of the standard peptide / IC50 of the test peptide) (ratio to standard peptide): 0.0002

B11: PAP peptide … (position 240, 10 amino acids) (peptide)
peptide: ELSLLSLYGI
modifications: not checked
HLA-A*0201 (human) [3]
  binding affinity ratio (IC50 of standard peptide / IC50 of test peptide): 0.0002

B12: … (PSM, position 145) (peptide)
peptide: EPPPPGYENV
modifications: not checked
HLA-B*0702 (human)
  binding affinity ratio (IC50 of the standard peptide / IC50 of the test peptide) (ratio to standard peptide): 0.0001

B13: … (PAP position 188, 10-mer) (peptide)
peptide: IATLGKLSGL
modifications: not checked
HLA-A*0201 (human) [2]
  binding affinity ratio: 0.0002

B14: … (PSA, position 141) (peptide)
peptide: EPALGTTCYA
modifications: not checked
HLA-B*0702 (human)
  binding affinity ratio (IC50 of the standard peptide / IC50 of the test peptide) (ratio to standard peptide): 0.0002

B15: … (PSA, position 58) (peptide)
peptide: TAAHCIRNK
modifications: not checked
HLA-A*0301 (human); [5]
  binding affinity ratio: 0.0094
HLA-A*1101 (human); [5]
  binding affinity ratio: 0.014

B16: PAP peptide … (position 291, 10 amino acids) (peptide)
peptide: TTVSGLQMAL
modifications: not checked
HLA-A*0201 (human) [1]
  binding affinity ratio (IC50 of standard peptide / IC50 of test peptide): 0.002

B17: peptide 20.0203 … (PAP.7) (peptide)
peptide: LLARAASLSL
modifications: not checked
HLA-A*0201 (human) [4]; [5]
  IC50: 500 nM
HLA-A*0202 (human); [5]
  IC50: 5.2 nM
HLA-A*0206 (human)
  IC50: 9250 nM

B18: … (PSM, position 361) (peptide)
peptide: TLRGAVEPDR
modifications: not checked
HLA-A*0301 (human)
  binding affinity ratio: 0.0003
HLA-A*1101 (human)
  binding affinity ratio: 0.0002

B19: … (PSA position 173, 9-mer) (peptide)
peptide: HVISNDVCA
modifications: not checked
HLA-A*0201 (human) [2]
  binding affinity ratio: 0.0001

B20: peptide 63.0142 … (PAP.30) (peptide)
peptide: VLAKELKFVTL
modifications: not checked
HLA-A*0201 (human) [4]; [5]
  IC50: 6.9 nM
HLA-A*0202 (human); [5]
  IC50: 8.1 nM

B21: PSA peptide … (position 7, 11 amino acids) (peptide)
peptide: SVTWIGAAPLI
modifications: not checked
HLA-A*0201 (human) [1]
  binding affinity ratio (IC50 of standard peptide / IC50 of test peptide): 0.0001

B22: … (PSA, position 124) (peptide)
peptide: EPAELTDAV
modifications: not checked
HLA-B*0702 (human)
  binding affinity ratio (IC50 of the standard peptide / IC50 of the test peptide) (ratio to standard peptide): 0.0001

B23: peptide 1419.55 … (PAP.92) (peptide)
peptide: FLNESYKHEQV
modifications: not checked
HLA-A*0206 (human)
  IC50: 381 nM

B24: … (PSM position 642, 9-mer) (peptide)
peptide: IASKFSERL
modifications: not checked
HLA-A*0201 (human) [2]
  binding affinity ratio: 0.0001

B25: PSA peptide … (position 5, 9 amino acids) (peptide)
peptide: TLSVTWIGA
modifications: not checked
HLA-A*0201 (human) [1]
  binding affinity ratio (IC50 of standard peptide / IC50 of test peptide): 0.0016

B26: PSA peptide … (position 127, 11 amino acids) (peptide)
peptide: ELTDAVKVMDL
modifications: not checked
HLA-A*0201 (human) [3]
  binding affinity ratio (IC50 of standard peptide / IC50 of test peptide): 0.0001

B27: peptide 1419.58 … (PAP.120.L2) (peptide)
peptide: LLALFPPEGV
modifications: not checked
HLA-A*0201 (human) [4]
  IC50: 5 nM
HLA-A*0202 (human)
  IC50: 0.7 nM

B28: peptide 1419.51 … (PAP.13) (peptide)
peptide: SLSLGFLFLL
modifications: not checked
HLA-A*0201 (human) [4]; [5]
  IC50: 40 nM

B29: … (PSM position 373, 10-mer) (peptide)
peptide: ILGGHRDSWV
modifications: not checked
HLA-A*0201 (human) [2]
  binding affinity ratio: 0.0003

B30: … (PSA, position 56) (peptide)
peptide: VLTAAHCIR
modifications: not checked
HLA-A*0301 (human)
  binding affinity ratio: 0.0002
HLA-A*1101 (human)
  binding affinity ratio: 0.0005
